Measured values: patent US20250011380A1 (published 2025)
Several values for one entry are separate records, joined by “and”; a condition that tells them apart may be missing. Equal values may be shown once.

Molecular target: TGF-β1 (UniProt P01137 279-390)
Assay: cell-based or functional assay

Chain of TGF-β1 (P01137 279-390 limits assumed): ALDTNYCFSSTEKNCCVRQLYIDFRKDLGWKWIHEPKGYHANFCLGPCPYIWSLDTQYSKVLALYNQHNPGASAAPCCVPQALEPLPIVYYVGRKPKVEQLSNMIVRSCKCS

B1: human recombinant TGFβRII/Fc (Fc fusion, UniProt P37173 23-159, looked up, not shown: a dimerising Fc or GST)
chain: TIPPHVQKSVNNDMIVTDNNGAVKFPQLCKFCDVRFSTCDNQKSCMSNCSITSICEKPQEVCVAVWRKNDENITLETVCHDPKLPYHDFILEDAASPKCIMKEKKKPGETFFMCSCSSDECNDNIIFSEEYNTSNPD
  IC50, HEK-Blue TGF-β cells, 0.1 nM TGF-β1: 0.47 nM
  IC50, HEK-Blue TGFβ reporter cells, 0.1 nM TGFβ1: 0.461 nM and 0.559 nM
  fold lower TGF-β1 blocking activity than TGFRt15-TGFRs or TGFRt15*-TGFRs: ~10 fold
